Measurements published in publication doi:10.1101/645523.

Legend:
Test in all cases: cryo-EM structure
[1] = biological target: Capsid associated protein P30 of bacteriophage PR772 (bacteriophage PR772)
[2] = biological target: Host-recognition protein P5 of bacteriophage PR772 (bacteriophage PR772)
[3] = biological target: Major capsid protein P3 of bacteriophage PR772 (bacteriophage PR772)

**Q.** Which stoichiometry N [1] does the source give for “Capsid associated protein P30 of bacteriophage PR772 (natural protein)” here?
**A.** 2

**Q.** “Host-recognition protein P5 of bacteriophage PR772 (natural protein)” was tested. Which stoichiometry N [2] did it give?
**A.** 3

**Q.** How did the stoichiometry N [3] turn out when “Major capsid protein P3 of bacteriophage PR772 (natural protein)” was run?
**A.** 3
